Test results from patent US20190055314A1 (ADAGENE, published 2019).
Numbering of substitutions follows the chain as printed.

T1: full-length monkey CD137 on the cell surface (cynomolgus monkey, UniProt Q07011 24-179 (human entry))
T1 chain: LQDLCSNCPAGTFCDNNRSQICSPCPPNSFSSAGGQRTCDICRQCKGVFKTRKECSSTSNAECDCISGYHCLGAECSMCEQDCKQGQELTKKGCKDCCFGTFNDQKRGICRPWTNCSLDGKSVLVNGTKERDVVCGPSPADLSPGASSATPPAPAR

T2: Hu_CRD4 (human, UniProt Q07011 119-159, limits assumed)
T2 construct: also called human CD137 CRD4
T2 chain: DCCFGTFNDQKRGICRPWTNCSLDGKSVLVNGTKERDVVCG

T3: Hu_CRD3 (human, limits assumed)
T3 construct: also called human CD137 CRD3
T3 chain: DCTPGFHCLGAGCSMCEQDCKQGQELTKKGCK

T4: Hu_CRD2 (human, UniProt Q07011 46-86, limits assumed)
T4 construct: also called human CD137 CRD2
T4 chain: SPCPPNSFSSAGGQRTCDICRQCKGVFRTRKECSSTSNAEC

T5: full-length mouse CD137 on the cell surface (mouse, UniProt P20334 24-178)
T5 sequence: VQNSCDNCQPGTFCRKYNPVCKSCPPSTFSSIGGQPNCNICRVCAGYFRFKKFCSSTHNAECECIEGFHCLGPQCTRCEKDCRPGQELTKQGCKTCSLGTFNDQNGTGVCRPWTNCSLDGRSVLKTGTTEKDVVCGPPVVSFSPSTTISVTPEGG

T6: monkey CD137 protein (Biacore) (cynomolgus monkey, UniProt Q07011 24-179 (human entry), limits assumed)
T6 construct: Construct used as SPR analyte not described; also called Cyno CD137
T6 chain: T1 chain

T7: monkey CD137 fused with human FC fragment (cynomolgus monkey, UniProt Q07011 24-179 (human entry), limits assumed)
T7 construct: also called Cyno CD137-Fc; not shown: human Fc fragment
T7 chain: T1 chain

B1: AG10059 (antibody, human IgG4 S228P, kappa, V domains shown)
VH: EVQLVESGGGLVQPGGSLRLSCAASGYSITSGHYWAWIRQAPGKGLEWVSSISGYGSTTYYADSVKGRFTISRDNSKNTLYLQLNSLRAEDTAVYYCARGGSDAVLGDWFAYWGQGTLVTVSS
VL: DIQLTQSPSSLSASVGDRVTITCRASQGIGSFLAWYQQKPGKAPKLLIYDASNLETGVPSRFSGSGSGTDFTLTISSLQPEDFATYYCQQGYYLWTFGQGTKVEIKR
B2: AG10058 (antibody, human IgG4 S228P, kappa, V domains shown)
VH: EVQLVESGGGLVQPGGSLRLSCAASGFSLSTSGVGVGWIRQAPGKGLEWLALIDWDDDKYYSPSLKSRLTISRDNSKNTLYLQLNSLRAEDTAVYYCARGGSDTVLGDWFAYWGQGTLVTVSS
VL: B1 VL with G28S, I29V, G30S, S31P, F32Y, N53S, T56S, Y93S

Key:
[1] = biological target: T8, full-length human CD137 on the cell surface (human, UniProt Q07011 18-255); assay: cell-based or functional assay
[2] = biological target: T1, full-length monkey CD137 on the cell …; assay: cell-based or functional assay
[3] = biological target: T2, Hu_CRD4; assay: flow cytometry, yeast display [Cont.]
[4] = biological target: T3, Hu_CRD3; assay: flow cytometry, yeast display [Cont.]
[5] = biological target: T9, Hu_CRD2-CRD3 (human, UniProt Q07011 46-118, limits assumed); assay: flow cytometry, yeast display [Cont.]
T9 construct: also called two CRD units (CRD2-CRD3) of human CD137

[6] = biological target: T10, Hu_CRD1-CRD2 (human, UniProt Q07011 24-86, limits assumed); assay: flow cytometry, yeast display [Cont.]
T10 construct: also called two CRD units (CRD1-CRD2) of human CD137

[7] = biological target: T11, Hu_GT150AA (human, UniProt Q07011 18-255); assay: flow cytometry, HEK293F cells expressing CD137 or mutant [Cont.]
T11 construct: On HEK293F

[8] = biological target: T12, Hu_FN125AA (human, UniProt Q07011 18-255); assay: as above
T12 construct: On HEK293F

[9] = biological target: T13, Hu_PW135AA (human, UniProt Q07011 18-255); assay: as above
T13 construct: On HEK293F

[10] = biological target: T8, full-length human CD137 on the cell …; assay: flow cytometry, yeast display
[11] = biological target: T4, Hu_CRD2; assay: flow cytometry, yeast display
[12] = biological target: T5, full-length mouse CD137 on the cell …; assay: flow cytometry, yeast display
[13] = biological target: T8, full-length human CD137 on the cell …; assay: flow cytometry, HEK293F
[14] = biological target: T1, full-length monkey CD137 on the cell …; assay: flow cytometry, HEK293F
[15] = biological target: T6, monkey CD137 protein (Biacore); assay: SPR Biacore, IgG captured
[16] = biological target: T1, full-length monkey CD137 on the cell …; assay: flow cytometry, PMA/ionomycin-activated monkey T cells, antibody 100 nM
[17] = biological target: T7, monkey CD137 fused with human FC …; assay: ELISA, coated CD137-Fc
[18] = biological target: T14, human CD137 fused with human FC fragment (human, UniProt Q07011 24-186, limits assumed); assay: ELISA, coated CD137-Fc
T14 construct: may be the same reagent as CD137-hisFc; also called human CD137 (FC fusion protein); not shown: human Fc fragment

[19] = biological target: T8, full-length human CD137 on the cell …; assay: flow cytometry, PMA/ionomycin-activated human T cells, antibody 100 nM
[20] = biological target: T15, human CD137-His6 (Sino Biological #10041-H08H) (human, UniProt Q07011 24-186); assay: SPR Biacore, IgG
T15 construct: Bought; also called human CD137 protein; not shown: His6 tag

[21] = biological target: T8, full-length human CD137 on the cell …; assay: flow cytometry, HEK293F cells expressing CD137 or mutant [Cont.]
[22] = biological target: T5, full-length mouse CD137 on the cell …; assay: as above
[23] = biological target: T16, CD137-hisFc fusion protein (Sino Biological Cat 10041-H03H) (human, UniProt Q07011 24-186); assay: competition ELISA, human CD137-Fc-His coated, biotinylated CD137L as blocked ligand, neutravidin-HRP
T16 construct: Bought; also called recombinant human CD137 (fused with human Fc and His tag); not shown: His tag and human Fc

T13 sequence (Q07011 18-255 P135A/W136A): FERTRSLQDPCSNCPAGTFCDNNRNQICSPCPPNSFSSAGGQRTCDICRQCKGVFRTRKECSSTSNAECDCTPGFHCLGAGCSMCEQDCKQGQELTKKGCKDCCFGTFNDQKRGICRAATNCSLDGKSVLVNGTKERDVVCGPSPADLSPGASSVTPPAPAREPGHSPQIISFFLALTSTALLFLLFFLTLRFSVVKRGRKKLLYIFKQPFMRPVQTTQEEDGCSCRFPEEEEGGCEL
T12 sequence (Q07011 18-255 F125A/N126A): as the sequence (Q07011 18-255 P135A/W136A) above, with F108A, N109A, A118P, A119W counted along it
T11 sequence (Q07011 18-255 G150A/T151A): as the sequence (Q07011 18-255 P135A/W136A) above, with A118P, A119W, G133A, T134A counted along it

Row | Binder | NFκB luciferase reporter, 293T cells with human CD137: EC50 (read off the curve) [1] [nM] | NFκB luciferase reporter, 293T cells with monkey CD137: EC50 (read off the curve) [2] [nM] | % in upper right quadrant [3] [%] | Mean [3] | % in upper right quadrant [4] [%] | Mean [4] | % in upper right quadrant [5] [%] | Mean [5] | % in upper right quadrant [6] [%] | Mean [6] | Mean [7] | binding result [8] | Mean [9] | % in upper right quadrant [10] [%] | Mean [10] | % in upper right quadrant [11] [%] | Mean [11] | % in upper right quadrant [12] [%] | Mean [12] | Kd [13] [nM] | other results
1 | B1 | ~10 | ~1 | 0.17 | 16100 | 0.25 | 6200 | 0.15 | 7460 | 0.31 | 12000 | 13300 | binds | 31600 | 25.9 | 58600 | 0.2 | 6280 | 0.44 | 9890 | 5 | Kd [14]: 2.6 nM; Kd [15]: 23.1 nM; % of cells positive for antibody binding [16]: 8.1%; Kd [17]: 0.4 nM; Kd [18]: 0.8 nM; % of cells positive for antibody binding [19]: 45.1%; Kd [20]: 38 nM; koff [20]: 0.0063 s⁻¹; kon [20]: 160000 M⁻¹ s⁻¹; % in upper right quadrant [21]: 34.7%; % in upper right quadrant [22]: 0.041%; IC50 (read off the curve) [23]: ~100 nM
2 | B2 | ~5 | ~1 | 0.15 | 16100 | 0.15 | 10400 | 0.11 | 14600 | 0.18 | 3680 | 12100 | binds | 24300 | 30.7 | 64700 | 0.24 | 13200 | 41.1 | 12600 | 1.8 | Kd [14]: 2 nM; Kd [15]: 9.3 nM; % of cells positive for antibody binding [16]: 9.8%; Kd [17]: 0.3 nM; Kd [18]: 0.2 nM; % of cells positive for antibody binding [19]: 52%; Kd [20]: 5.9 nM; koff [20]: 0.0024 s⁻¹; kon [20]: 410000 M⁻¹ s⁻¹; % in upper right quadrant [21]: 27.3%; % in upper right quadrant [22]: 31.1%; IC50 (read off the curve) [23]: ~40 nM
